Common to all, as to assay: cell_activity
What all share (conditions): E. coli, bisulfite

Data set [1] concerns the target Split M.SssI-HS1/HS2 variant CFESY K297C,N299E,E301Y (Spiroplasma sp. (M.SssI)?) (UniProt P15840).
The target in data set [2] is Split M.SssI (1-272)-HS1 / HS2-M.SssI (273-386), 'wild-type' KFNSE at 297-301 (Spiroplasma sp. (M.SssI)?) (UniProt P15840).
For data set [3], the target named is Split M.SssI-HS1/HS2 variant PFCSY K297P,N299C,E301Y (Spiroplasma sp. (M.SssI)?) (UniProt P15840+P15840).
Sequence of Split M.SssI-HS1/HS2 variant PFCSY K297P,N299C,E301Y (Spiroplasma sp. (M.SssI)?) (P15840 whole entry, stated change not applied, chain 1 of 2): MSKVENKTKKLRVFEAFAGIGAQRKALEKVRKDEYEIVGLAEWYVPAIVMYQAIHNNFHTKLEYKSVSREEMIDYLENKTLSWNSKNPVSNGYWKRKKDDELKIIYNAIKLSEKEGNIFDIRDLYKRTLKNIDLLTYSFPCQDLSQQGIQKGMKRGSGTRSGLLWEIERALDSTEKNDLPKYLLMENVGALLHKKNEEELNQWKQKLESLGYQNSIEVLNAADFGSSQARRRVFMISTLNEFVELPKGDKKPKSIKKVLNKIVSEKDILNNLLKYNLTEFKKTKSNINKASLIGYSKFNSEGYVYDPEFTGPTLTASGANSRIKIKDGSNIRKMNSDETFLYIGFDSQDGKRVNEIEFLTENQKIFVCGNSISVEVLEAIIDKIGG
Sequence of Split M.SssI-HS1/HS2 variant PFCSY K297P,N299C,E301Y (Spiroplasma sp. (M.SssI)?) (P15840 whole entry, stated change not applied, chain 2 of 2): as the sequence (P15840 whole entry, stated change not applied, chain 1 of 2) above

Sequence of Split M.SssI-HS1/HS2 variant CFESY K297C,N299E,E301Y (Spiroplasma sp. (M.SssI)?) (P15840 other isoform, or with tags, fused parts or gaps K297C N299E E301Y, chain 1 of 2): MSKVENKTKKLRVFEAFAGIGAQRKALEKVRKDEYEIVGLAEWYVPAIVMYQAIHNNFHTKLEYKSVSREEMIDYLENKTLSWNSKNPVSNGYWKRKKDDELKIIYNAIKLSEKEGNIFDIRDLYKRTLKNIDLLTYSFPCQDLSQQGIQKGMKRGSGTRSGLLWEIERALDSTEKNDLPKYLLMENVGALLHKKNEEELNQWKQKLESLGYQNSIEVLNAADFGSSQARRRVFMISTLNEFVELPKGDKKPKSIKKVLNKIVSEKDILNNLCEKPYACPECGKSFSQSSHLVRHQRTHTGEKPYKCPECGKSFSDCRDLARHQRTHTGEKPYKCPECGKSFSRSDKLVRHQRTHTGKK
Sequence of Split M.SssI-HS1/HS2 variant CFESY K297C,N299E,E301Y (Spiroplasma sp. (M.SssI)?) (P15840 other isoform, or with tags, fused parts or gaps K297C N299E E301Y, chain 2 of 2): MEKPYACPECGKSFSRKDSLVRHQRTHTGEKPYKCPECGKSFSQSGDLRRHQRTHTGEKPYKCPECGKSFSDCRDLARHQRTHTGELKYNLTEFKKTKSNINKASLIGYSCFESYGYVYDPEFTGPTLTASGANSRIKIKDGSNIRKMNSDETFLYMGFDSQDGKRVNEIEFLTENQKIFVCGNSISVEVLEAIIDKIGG
Sequence of Split M.SssI (1-272)-HS1 / HS2-M.SssI (273-386), 'wild-type' KFNSE at 297-301 (Spiroplasma sp. (M.SssI)?) (P15840 other isoform, or with tags, fused parts or gaps, chain 1 of 2): as the sequence (P15840 other isoform, or with tags, fused parts or gaps K297C N299E E301Y, chain 1 of 2) above
Sequence of Split M.SssI (1-272)-HS1 / HS2-M.SssI (273-386), 'wild-type' KFNSE at 297-301 (Spiroplasma sp. (M.SssI)?) (P15840 other isoform, or with tags, fused parts or gaps, chain 2 of 2): as the sequence (P15840 other isoform, or with tags, fused parts or gaps K297C N299E E301Y, chain 2 of 2) above, with C111K, E113N, Y115E counted along it

On to “HS1/HS2 target site (FspI CpG flanked by HS1 and HS2 sites, plasmid)”, for which the activity came to 42.1 % methylated in data set [1] (70-80% by restriction protection, also target-only methylation in HEK293); 94.1 % methylated in data set [2]; 78.9 % methylated in data set [3].
Take “Non-target site (SnaBI CpG or surrounding CpGs, no ZF sites, plasmid)”: the activity in data set [1] (all off-target CpGs) came to 0.71 % methylated; in data set [2] (all off-target CpGs), 49.5 % methylated; in data set [3] (all off-target CpGs), 0.84 % methylated.

The values above are taken from patent publication US20170058268.
